Laboratory results from patent US20210079060A1 (ALETA BIOTHERAPEUTICS, published 2021).
Where “and” joins values, the source holds several entries; their conditions need not be identical. Equal values may be shown once.

Experiments:
[1] = molecular target: T1, CD20 (UniProt P11836 1-297, limits assumed); experiment: binding to CD20 positive HEK293 cells (method of the fit not stated)
T1 construct: whole, on cells; also called CD20 positive HEK293 cells
T1 sequence (looked up): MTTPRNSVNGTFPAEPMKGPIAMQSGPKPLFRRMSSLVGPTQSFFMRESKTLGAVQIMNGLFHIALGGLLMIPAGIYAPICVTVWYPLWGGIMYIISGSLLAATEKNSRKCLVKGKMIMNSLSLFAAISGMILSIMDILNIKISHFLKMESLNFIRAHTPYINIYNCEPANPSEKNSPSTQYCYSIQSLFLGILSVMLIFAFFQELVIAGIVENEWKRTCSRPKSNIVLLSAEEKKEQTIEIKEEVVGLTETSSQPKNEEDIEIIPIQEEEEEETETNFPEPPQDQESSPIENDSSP

[2] = molecular target: T1, CD20; experiment: FACS on CD20 positive HEK293 cells, detected with FMC63-PE
[3] = molecular target: T1, CD20; experiment: binding to CD20 positive cells; unit as printed in the table, but the x-axis of the curve is in ng/ml and the half-maximum lies near 20 on it
[4] = molecular target: T1, CD20; experiment: binding to CD20 positive cells; unit as printed in the table; it follows from 22.34 ug/ml and MW 210.8 kDa, while the curve's axis is in ng/ml

- Kd [1]: ~0.016 nM
- EC50 [2]: 0.00343 µg/mL and 0.0163 nM
- EC50 [3]: 22.3 µg/mL
- EC50 [4]: 106 nM
B1: Rituximab-CD19 construct (#377/378) (antibody, human IgG1, kappa)
light: QIVLSQSPAILSASPGEKVTMTCRASSSVSYIHWFQQKPGSSPKPWIYATSNLASGVPVRFSGSGSGTSYSLTISRVEAEDAATYYCQQWTSNPPTFGGGTKLEIKRTVAAPSVFIFPPSDEQLKSGTASVVCLLNNFYPREAKVQWKVDNALQSGNSQESVTEQDSKDSTYSLSSTLTLSKADYEKHKVYACEVTHQGLSSPVTKSFNRGECGGGGSGGGGSGGGGSGGGGSPEEPLVVKVEEGDTAALWCLKGTSDGPTQQLTWSRESPLKPFLKYSLGVPGLGVHVRPDAISVVIRNVSQQMGGFYLCQPGPPSEKAWQPGWTVNVEGSGELFRWNVSDLGGLGCGLKNRSSEGPSSPSGKLMSPKLYVWAKDRPEIWEGEPPCLPPRDSLNQSLSRDLTVAPGSTLWLSCGVPPDSVSRGPLSWTHVHPKGPKSLLSLELKDDRPARDMWVMGTSLMLPRATAQDAGKWYCHRGNLTMSFHLEITARPSRHHHHHH
heavy: not shown
notes: also called Rituximab-based construct; wild type Rituximab-CD19 construct
